# Laboratory results taken from patent US8911953B2, “TDF-related compounds and analogs thereof, analogs and bioactive fragments” (Thrasos Innovation, Inc., priority 2005, dated 2014).
# Entries after “also recorded” stand apart in the source; their conditions may differ.
# B1: BMP-6: bone morphogenetic protein BMP-6 (Vgr-1) (protein, UniProt P22004 375-513, looked up)
# Bone morphogenetic protein 6: SASSRRRQQSRNRSTQSQDVARVSSASDYNSSELKTACRKHELYVSFQDLGWQDWIIAPKGYAANYCDGECSFPLNAHMNATNHAIVQTLVHLMNPEYVPKPCCAPTKLNAISVLYFDDNSNVILKKYRNMVVRACGCH
# Key:
# [1] = system: LNCaP human prostate cancer cells; assay: Smad phosphorylation in LNCaP prostate cancer cells (Western blot); assay type: cell-based; settings: single agent, cultured LNCaP cells
# Procedure: The detection of Smad phosphorylation by Western analysis, for example in LNCaP (prostate cancer cells) or EC (vascular endothelial cells) in culture medium can be examined after exposure to varying concentrations of TDFRP or control compounds. BMP-7 serves as a positive control. Cells are lysed in RIPA lysis buffer (50 mM Tris-HCl at pH 8.0, 150 mM NaCl, 1% NP-40, 0.5% sodium deoxycholate, 0.1% SDS) containing 1 mM PMSF, 1 mM sodium orthovanadate, and 10 ug/mL proteinase inhibitor cocktail. Lysates are incubated on ice for 15 minutes, centrifuged, and transferred supernatant to a clean tube. 50 to 100 ug is used for analysis by SDS-PAGE. Resolved proteins are electro transferred onto PVDF membrane. The blot is blocked by incubating in 3% non-fat dry milk prepared in PBS at room temperature for 1 hour with constant slow agitation. The blot is incubated with 1-2 ug/mL of primary antibody (rabbit anti-phospho-Smad 1) prepared in PBS-milk, overnight with agitation at 4 degree C., washed twice with PBS, and incubated with secondary antibody (anti rabbit HRP conjugated IgG, 1:3000 dilution) at room temperature for 2 hours with agitation. After washing in PBS-0.05% Tween 20 for 5 minutes and rinsing, Smad phosphorylation is detected via an HRP reaction according to manufacturer's instructions (FIGS. 2, 3, 18, 2X).
# For detection of Smad phosphorylation by Western analysis, LNCaP (prostate cancer cells) or EC (vascular endothelial cells) in culture medium are exposed to varying concentrations of TDFRP or control compounds. BMP-7 served as a positive control. Cells are lysed in RIPA lysis buffer (50 mM Tris-HCl at pH 8.0, 150 mM NaCl, 1% NP-40, 0.5% sodium deoxycholate, 0.1% SDS) containing 1 mM PMSF, 1 mM sodium orthovanadate, and 10 ug/mL proteinase inhibitor cocktail. Lysates are incubated on ice for 15 minutes, centrifuged, and transferred supernatant to a clean tube. 50 to 100 ug is used for analysis by
# SDS-PAGE. Resolved proteins are electro transferred onto PVDF membrane. The blot is blocked by incubating in 3% non-fat dry milk prepared in PBS at room temperature for 1 hour with constant slow agitation. The blot is incubated with 1-2 ug/mL of primary antibody (rabbit anti-phospho-Smad 1) prepared in PBS-milk, overnight with agitation at 4 degree C., washed twice with PBS, and incubated with secondary antibody (anti rabbit HRP conjugated IgG, 1:3000 dilution) at room temperature for 2 hours with agitation. After washing in PBS-0.05% Tween 20 for 5 minutes and rinsing, Smad phosphorylation is detected via an HRP reaction according to manufacturer's instructions (FIGS. 3, 27).
# BMP signaling molecules co-administered with TDFRP compounds show synergistic or enhanced downstream signaling as detected by Smad phosphorylation. Smad phosphorylation was assessed by Western analysis in LNCaP (prostate cancer cells) or EC (vascular endothelial cells) cells in culture medium exposed to varying concentrations of TDFRP or control compounds. BMP-7 served as a positive control. Cells are lysed in RIPA lysis buffer (50 mM Tris-HCl at pH 8.0, 150 mM NaCl, 1% NP-40, 0.5% sodium deoxycholate, 0.1% SDS) containing 1 mM PMSF, 1 mM sodium orthovanadate, and 10 ug/mL proteinase inhibitor cocktail. Lysates are incubated on ice for 15 minutes, centrifuged, and transferred supernatant to a clean tube. 50 to 100 ug is used for analysis by SDS-PAGE. Resolved proteins are electro transferred onto PVDF membrane. […]
# LNCaP = assay: Cancer cell proliferation, tritiated thymidine incorporation; assay type: cell-based, human; settings: LNCaP cultured in vitro
# From the text: (§1) TDFRP Compound Inhibition of LNCaP Cancer Cell Proliferation. BMP-6 and a TDFRP compound (SEQ ID NO:45) inhibited the proliferation of prostate cancer cells (LNCaP and PC-3) cultured in vitro as detected by the incorporation of tritiated thymidine (a measure of cell proliferation.
# (§2) Prostate cancer is one of the most common cancers in men. […] Moreover, it has been shown that BMP signals inhibit the growth and the proliferation of human prostate tumor cells by upregulating the cyclin-dependent kinase inhibitor (CDKI) p21 (CIP1/WAF1) and decreasing the activity of Cdk2, leading to hypophosphorylation of Rb proteins. TDFRP compounds have been screened in in vitro prostate and bladder cancer bioassays to assess growth inhibitory activity of the compounds (FIG. 3). ^3H-thymidine incorporation is used as a marker for cell proliferation activity in human prostate and bladder cancer cell lines. Cisplatin inhibits ^3H-thymidine incorporation, indicating a tumor-growth suppressive activity of cisplatin in both human prostate and bladder cancer cells. TDFRP compounds are assayed in these cancer cells for the ability to induce receptor-regulated Smad 1/5 phosphorylation in a dose-dependent manner (FIG.).
# as §2, with “(FIGS. 3, 28).” for “(FIG. 3).”, “(FIGS. 3, 28).” for “(FIG.).”
# PC-3 = assay: as above; assay type: cell-based, human; settings: PC-3 cultured in vitro
# From the text: as §1, §2
# as §2, with “(FIGS. 3, 28).” for “(FIG. 3).”, “(FIGS. 3, 28).” for “(FIG.).”
molecule,measurement,setting,value
B1,Smad phosphorylation and activation,[1],"induced; also recorded: Smad 1, 5, 8 phosphorylation and activation"
same,proliferation (incorporation of tritiated thymidine),LNCaP,inhibited
same,proliferation (incorporation of tritiated thymidine),PC-3,inhibited
